Literature values as cited in paper PMC10551901.

Columns and labels:
[1] = target: Rab32 (Homo sapiens) (UniProt Q13637)
[2] = target: Rab29 (Homo sapiens) (UniProt O14966)
[3] = target: Rab38 (Homo sapiens) (UniProt P57729)

Measured: Kd

Sequence of UniProt Q13637 (Q13637 2-225): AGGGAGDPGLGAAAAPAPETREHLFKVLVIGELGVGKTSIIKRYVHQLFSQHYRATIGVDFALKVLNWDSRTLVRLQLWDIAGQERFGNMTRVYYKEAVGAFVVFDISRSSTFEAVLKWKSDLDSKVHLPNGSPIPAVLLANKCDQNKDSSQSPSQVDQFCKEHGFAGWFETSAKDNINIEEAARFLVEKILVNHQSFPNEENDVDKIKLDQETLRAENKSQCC
Sequence of UniProt O14966 (O14966 whole entry): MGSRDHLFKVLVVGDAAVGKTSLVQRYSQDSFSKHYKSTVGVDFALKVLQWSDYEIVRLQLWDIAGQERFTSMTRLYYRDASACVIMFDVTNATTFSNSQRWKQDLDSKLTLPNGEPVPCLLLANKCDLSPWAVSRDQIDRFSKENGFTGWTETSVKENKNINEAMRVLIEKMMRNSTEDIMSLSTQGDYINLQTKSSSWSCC
Sequence of UniProt P57729 (P57729 whole entry): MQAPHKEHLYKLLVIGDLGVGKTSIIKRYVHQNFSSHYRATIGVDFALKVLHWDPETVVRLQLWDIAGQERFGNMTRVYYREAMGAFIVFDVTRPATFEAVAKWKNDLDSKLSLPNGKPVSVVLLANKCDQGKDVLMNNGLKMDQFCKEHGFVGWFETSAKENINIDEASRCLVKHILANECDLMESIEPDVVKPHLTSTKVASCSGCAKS

LRRK2 1-552 (from UniProt Q5S007)
2000 nM: all assays above
